Reference: publication PMC10743992, “A Transient π–π or Cation–π Interaction between Degron and Degrader Dual Residues: A Key Step for the Substrate Recognition and Discrimination in the Processive Degradation of SulA by ClpYQ (HslUV) Protease in Escherichia coli” (International Journal of Molecular Sciences, 2023)
Residue numbers refer to the chain shown, from its start. Names may count otherwise.

T1: His (6x)-tagged ClpY (Escherichia coli, UniProt P0A6H5 1-443)
T1 construct: ClpY (HslU) ATPase/unfoldase of Escherichia coli, wild type, cloned in pET21a at NdeI-HindIII; Used as the 6-oligomer (1.3 uM) with 5 mM ATP; also called His-ClpY; HslU
T1 sequence (looked up): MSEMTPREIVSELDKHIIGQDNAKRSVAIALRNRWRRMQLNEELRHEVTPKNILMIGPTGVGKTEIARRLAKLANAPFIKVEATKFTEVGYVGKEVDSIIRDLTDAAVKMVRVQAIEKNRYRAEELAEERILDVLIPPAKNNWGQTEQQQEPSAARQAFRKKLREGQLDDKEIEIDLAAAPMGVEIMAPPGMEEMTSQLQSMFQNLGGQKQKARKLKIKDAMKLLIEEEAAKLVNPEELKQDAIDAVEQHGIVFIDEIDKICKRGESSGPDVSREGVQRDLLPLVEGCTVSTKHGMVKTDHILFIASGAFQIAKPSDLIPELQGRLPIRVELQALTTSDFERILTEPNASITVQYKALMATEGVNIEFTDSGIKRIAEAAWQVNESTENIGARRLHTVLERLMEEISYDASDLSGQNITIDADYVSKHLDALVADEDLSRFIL

B1: MBP-SulA (natural protein, Escherichia coli, UniProt P0AFZ5 1-169, looked up)
chain: MYTSGYAHRSSSFSSAASKIARVSTENTTAGLISEVVYREDQPMMTQLLLLPLLQQLGQQSRWQLWLTPQQKLSREWVQASGLPLTKVMQISQLSPCHTVESMVRALRTGNYSVVIGWLADDLTEEEHAELVDAANEGNAMGFIMRPVSASSHATRQLSGLKIHSNLYH
notes: also called wild-type MBP-SulA; source: E. coli BL21 (DE3), purified (amylose resin)
B2: MBP-SulA^F143H (natural protein, Escherichia coli, UniProt P0AFZ5 1-169, looked up)
chain: B1 chain with F143H
notes: SulA of Escherichia coli with F143H, cloned in pMal-c2X at EcoRI-BamHI; source: E. coli BL21 (DE3), purified (amylose resin)
B3: MBP-SulA^F143K (natural protein, Escherichia coli, UniProt P0AFZ5 1-169, looked up)
chain: B1 chain with F143K
notes: SulA of Escherichia coli with F143K, cloned in pMal-c2X at EcoRI-BamHI; source: E. coli BL21 (DE3), purified (amylose resin)

Molecular target: T1, His (6x)-tagged ClpY
Test: pull-down; His-ClpY (6-oligomer, 1.3 uM) held on cobalt resin; MBP-SulA or variant 7.8 uM; 50 mM HEPES pH 7.4, 150 mM NaCl, 5% glycerol, 5 mM MgCl2, 0.04% Triton X-100, 5 mM ATP, 41 °C 3 h, then resin at 4 °C; 10 washes with 300 mM NaCl; SDS-PAGE, Coomassie
Conditions: both partners purified

Binder	binding result
B1	binds
B2	binds
B3	binds
